Reference: patent US20030232051A1 (GOVERNMENT OF THE UNITED STATES OF AMERICA AS REPRESENTED …, published 2003)

B1: FcRγ chain (other, UniProt P30273 19-86, looked up)
chain: LGEPQLCYILDAILFLYGIVLTLLYCRLKIQVRKAAITSYEKSDGVYTGLSTRNQETYETLKHEKPPQ
notes: whole, on cells
B2: DAP12 (other, UniProt O43914 22-113, looked up)
chain: LRPVQAQAQSDCSCSTVSPGVLAGIVMGDLVLTVLIALAVYFLGRLVPRGRGAAEAATRKQRITETESPYQELQGQRSDVYSDLNTQRPYYK
notes: whole, on cells; also called DAP12 adaptor protein
B3: DAP10 (other, UniProt Q9UBK5 19-93, looked up)
chain: QTTPGERSSLPAFYPGTSGSCSGCGSLSLPLLAGLVAADAVASLLIVGAVFLCARPRRSPAQEDGKVYINMPGRG
notes: whole, on cells

These binders were tested against T1, KIR2DL4 receptor (on NK cells or on cells transfected with 2DL4) (human, UniProt Q99706 22-377) (assay: transfection experiments in Ba/F3 and 293T cells).
T1 construct: whole, on cells; Endogenous on human NK cells and NK cell lines (NK3.3, NKL, NK92) or on transfected cells; also called CD158d
T1 sequence (Q99706 22-377): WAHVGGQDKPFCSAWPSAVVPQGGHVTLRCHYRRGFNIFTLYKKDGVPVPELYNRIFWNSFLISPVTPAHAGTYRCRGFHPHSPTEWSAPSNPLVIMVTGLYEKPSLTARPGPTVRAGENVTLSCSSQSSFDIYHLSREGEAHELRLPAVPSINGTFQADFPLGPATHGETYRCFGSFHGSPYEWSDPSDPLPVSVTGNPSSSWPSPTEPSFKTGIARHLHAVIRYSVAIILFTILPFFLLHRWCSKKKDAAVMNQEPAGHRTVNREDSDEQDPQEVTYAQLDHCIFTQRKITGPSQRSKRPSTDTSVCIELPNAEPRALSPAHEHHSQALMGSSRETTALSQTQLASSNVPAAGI

binding result	Binder
no binding	B1
no binding	B2
no binding	B3
